Data set [1] deals with NS1A(1-73) RNA-binding domain of influenza A virus NS1 protein (Influenza A virus) (UniProt P03495). The data set can be described thus: EMSA. As to conditions: CITED Wang 1999; 10-fold higher affinity than for 55-bp dsRNA; cited from earlier work.
Data set [2] has as its target NS1A(1-73) RNA-binding domain of influenza A virus NS1 protein (Influenza A virus, UniProt P03495 P03495:1-73). Kind of data set: sedimentation equilibrium, 25 C, 1:1 dimer:duplex; summarized as ~1 uM. As to conditions: tags: pET11a expression in E. coli BL21(DE3), no tag stated; chain copies: 2 (stated, homodimer); label: 5'-32P for gel shift; unlabeled otherwise.

Here are results for 2 molecules from patent US20080234175, “Process for Designing Inhibitors of Influenza Virus Structural Protein 1” (published 2008).

Chain of NS1A(1-73) RNA-binding domain of influenza A virus NS1 protein (Influenza A virus) (P03495 1-73): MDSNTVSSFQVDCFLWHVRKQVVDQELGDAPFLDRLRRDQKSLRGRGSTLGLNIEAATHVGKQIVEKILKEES
Chain of NS1A(1-73) RNA-binding domain of influenza A virus NS1 protein (P03495 1-73, one chain of several): as the sequence (P03495 1-73) above

Consider 140-bp dsRNA, for which, in data set [1], the binding signal was 10 fold.

B1: 16-bp dsRNA (RR) (dsRNA)
RNA 1: CCAUCCUCUACAGGCG
RNA 2: CGCCUGUAGAGGAUGG
What is called Kd is the equilibrium constant for the complex coming apart. As for B1, the Kd in data set [2] worked out at 748 nM.
